For one substance, Kd results are on record in publication PMC12159748.

Data set [1] deals with MBP-P6.9 NA-FLAG (7A, hypo-phosphorylation mimic) (Autographa californica multiple nucleopolyhedrovirus (AcMNPV)). Put plainly: fluorescence polarization. Particulars: FP: 50 mM HEPES pH 7.5, 0.005% sarcosyl, 100 mM NaCl, 0.5 mM EDTA, 1 mM DTT, 20 nM DNA, 1 h at 4 C, EMSA: 50 mM Tris pH 7.4, 100 mM NaCl, 1 mM EDTA. For orientation: Fluorescence polarisation rises when a labelled molecule tumbles more slowly, as on binding a larger partner.

Data set [2] relates to MBP-P6.9 NE-FLAG (7E, hyper-phosphorylation mimic) (Autographa californica multiple nucleopolyhedrovirus (AcMNPV)). As to the kind of experiment: fluorescence polarization. Particulars: FP: 50 mM HEPES pH 7.5, 0.005% sarcosyl, 100 mM NaCl, 0.5 mM EDTA, 1 mM DTT, 20 nM DNA, 1 h at 4 C, EMSA: 50 mM Tris pH 7.4, 100 mM NaCl, 1 mM EDTA.

Consider 39-bp DNA, for which the Kd turned out to be 450 nM in data set [1] and 1750 nM in data set [2].

In general, Kd refers to the concentration at which binding is half-saturated. Read a low Kd as higher affinity.
